Our source for the ELISA binding value and response level (biolayer interferometry) values is patent US20190330277A1.

One assay concerns the target 391-2_DS-Cav1-tzsc7. The assay is described as follows: ELISA, variant from culture supernatant on Ni-NTA plate.
A further assay addresses 391-2-DS-Cav1-BZGJ9 Long. The assay is described as above.
In assay [1] the target is bRSV RB94 DSCav1 (bovine respiratory syncytial virus, strain RB94) (UniProt P23728). Kind of assay: biolayer interferometry Octet binding analysis. For orientation: BLI is a label-free optical method that tracks binding on a fibre tip over time.

For motavizumab (antibody), the ELISA binding value in the assay with 391-2_DS-Cav1-tzsc7 stood at 1.99; in the assay with 391-2-DS-Cav1-BZGJ9 Long, 1.55. The response level (biolayer interferometry) in assay [1] amounted to 0.5 nm.
